This note sets out measurements from the nanobody polyreactivity screen of Harvey et al. (2022).

The nature of the data set: yeast display, Sf9 membrane polyspecificity reagent, FACS + sequencing; frameworks hold sequencing errors. The method in brief:
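Nanobodies from a synthetic yeast display library (Saccharomyces cerevisiae BJ5465), induced 36–48 hours with galactose, were stained 1 hour at 4 °C with 10% biotinylated, detergent-solubilized Sf9 membrane reagent, enriched on streptavidin microbeads, then FACS-sorted. Anti-HA (expression) and streptavidin (reagent binding) fluorescence set low and high (top ~1%) gates. Polyreactivity labels come from the gate of origin. Genes were colony-PCR amplified, MiSeq 2 × 250 sequenced and filtered by CDR length.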
Regarding “QVQLVESGGGLVQAGGSLRLSCAASGFTFTEYTMGRYRQAPGKERELVATISWSGGSTYYADSVKGRFTISRDNAKNTVYLQMNSLKPEDTAVYYCAKDQWPWVRDSLYTLRYDYWGQGTQVTVSS”, the “polyreactivity (PSR sort gate)” value is listed as “low polyreactivity”.

“QVQLVESGGGLVQAGGSLRLTCAASGNIFSTYAMGWYRQAPGKERELVASISENGGSTYYADSVKGRFSISRDNAKTTVYLQMNSLKPEHTAVYYCNKDYYYPNSWPKYVYWGQGTQVTLSS”: the “polyreactivity (PSR sort gate)” value is “low polyreactivity”.

“QVQLVESGGGLVQAGGSLRLSCAASGGTFDWNTMGWYRQAPGKERELVASITSGGRTNYADSVKGRFTISRDNAKNTVYLQMNSLKPEDTAVYYCAKYRRSAYPWQTWVGQKFDYWGQGTQVTVSS”: the “polyreactivity (PSR sort gate)” value is on record as “low polyreactivity”.

Take “QVQLVESGGGLVQAGGSLRLSCAASGSTFYLYAMGWYRQAPGKERELVAAISWSGDSTYYADSVKGRFTISRDNAKNTVYLQMNSLKPEDTAVYYCAAEFYWGDLSYWGQGTQVSVSS”: the “polyreactivity (PSR sort gate)” value is reported as “high polyreactivity”.

As to “QVQLVESGGGLVQAGGSLRLSCAASGSIFSKYVMGWYRQAPGKEMELVASITSGGRTNYADSVKGRFTISRDNAKNTVYLQMNSLKPEDTAVYYCAARALKTWYRSGVDYWGQGTQVTVSS”, the “polyreactivity (PSR sort gate)” value is on record as “low polyreactivity”.

As for “QVQLVESAGGLVQAGGSLRLSCAASGRIFYRYAMAWYRQAPGKERELVAAITQSGGSTFYADSVKGRFTISRDNAKNTVYLQMNSLKPEDTAVYYCNAYIPSLRGDYWGQGTQVTVSS”, the “polyreactivity (PSR sort gate)” value was “high polyreactivity”.

Consider “QVQLVESGGGLVQAGGSLRLSCAAYGRIFRYYAMGWYRQAPGKERELVAGISWRGSSTYYADSVKGRFTLSRDNAKNTVYLQMNSLKPEDTAVYYCNRDQSNIPVTGVRFYYWGQGTQVTVSS”, for which the “polyreactivity (PSR sort gate)” value is listed as “high polyreactivity”.

In the case of “QVQLVESGGGLVQAGGSLRLSCAASGYIFQYYAKGWYRQAPGKERELVAAITGGGSTKYADSVKGRFTISRDNAKHTVYLQMNSLKPEDTAVYYCAKRYPSWFNYWGQGTQVTVSS”, the “polyreactivity (PSR sort gate)” value is reported as “high polyreactivity”.

Take “QVQLVESGGGLVQAGGSLRLSCAASGRIGRYAMGWYRQAPGKERELVAVITSGDSTYYADSVKGRFTISRDNAKNTVYLQMNSLTPEDTAVYYCAADSYRRWGNLFTGNEYDSWGQGTQVTVSS”: the “polyreactivity (PSR sort gate)” value is “low polyreactivity”.

As for “QVQLVESGGGLVQAGGSLRLSCAASGSTFGFNAMGWYRQAPGKERELVAAITFSGGTTYYADSVKGRFTISRDNAKNTVYLQMNSLKPEDTAVYYCNADVKRDRVWGGDYWGQGTQVTVSS”, the “polyreactivity (PSR sort gate)” value is listed as “low polyreactivity”.

With “QVQLEESGGGLVQAGGSLRLTCAASGFTFGYYTMGWYRQAPGQERELVAAISSGGSTNYADSVKGRFTISRDNAKNTVYLEMNSLKPEDTAVYYCTATQIGPYYLPFDSWGQGTQVTVSS”, the “polyreactivity (PSR sort gate)” value is “high polyreactivity”.

With “QVQLVESGGGLVHAGGSLRLSCAASGRIFDGNTMGWYRQAPGKERELVAAISGGGSTDYADSVKGRFTISRDNAKNTVYLQMNSLKPEDTAVYYCAATTGPVPLKGDYWGQGTQVTVSS”, the “polyreactivity (PSR sort gate)” value is on record as “low polyreactivity”.

With “QVQLVESGGGLVQAGGSLRLSCAASGRTFFPYAMGWYRPAPGKEREFVAAITKTDDSTYYADSVKGRFTISRDNAKNTVYLQMNSLKPEDTAVYYCNAGDTQIRFYYWGQGTQVTVSS”, the “polyreactivity (PSR sort gate)” value was “low polyreactivity”.

Turning to “QVQLVESGGGLVQAGGSLPLSCAASGSTFGSYAMGWYRQAPGKERELVAAISYSGGSTYYADSVKGRFTISRDNEKNTVFLQMNSLKPEDTAVYYCATVRKYRAMDYWGQGTQVSVSS”, the “polyreactivity (PSR sort gate)” value is “high polyreactivity”.

As to “QVHLVESGGGLVQAGGSLRLSCAASGSTFGVYAMGWYRQAPAKERELVAAISSSTGSTYYADSVKGRFTISRDNEKNTVYLQMNSLKPEDTAVYFCAAAGYGKVRGDYWGQGSQVTVSS”, the “polyreactivity (PSR sort gate)” value was “low polyreactivity”.

In the case of “QVQLVESGGGLVQAGGSLRLSCAASGIIFTKYVMGWYRQAPGKERELVAAINTDGGSTRYADSVKGRFTISRDNAKNTVYLQMNSLIPEDTAVYYCNTVWFYGAKYDYWGQGTQVTVSS”, the “polyreactivity (PSR sort gate)” value was “high polyreactivity”.

For “QVQLVESGGGLVQAGGSLRLICAASGGTFWIYAMGWYRQAPGKERELVAGITTSGATTYYADSVKGRFTISRDNAKNTVYLQMNSLKPEDTAVYYCAADEYYRYEYWGQGTQVTVSS”, the “polyreactivity (PSR sort gate)” value is recorded as “low polyreactivity”.

For “QVQLVESGGGLVQAGGSLRLSCAASGRIFYSNVMGWYRQAPGKERELVAAISGRTGGTYYADSVKGRFTISRDNAKNTVYLQMNSLKPEDTAVYYCNAYSLRHHHSDYWGQGTQVTVSS”, the “polyreactivity (PSR sort gate)” value is reported as “low polyreactivity”.

For “QVQLVESGGGLVQAGGSLRLSCAASGITFWYYAMGWYRQEPGKERELVAAISSSGGRTTYADSVKGRFTISRDNAKNTVYLQMNSLKPEDTAVYYCNADRRRYQHRRGSSVYLYDYWGQGTQVTVSS”, the “polyreactivity (PSR sort gate)” value is “high polyreactivity”.

In the case of “QVQLVESGGGLVQAGGSLRLSCAASGRIFGPYVMGWYIQAPGKERELVAAISTSGTSTYYADSVKGRFTISRDNANNTVYLQMNSLKPEDTAVFYFAKRSGARHRLMDYWGQGTQVTVSS”, the “polyreactivity (PSR sort gate)” value is on record as “low polyreactivity”.

With “QVQLVESGGGLVQAGGSLRLSCAASGRIFSLYAMGWYRQAPGKERELDAAITWSSGSTYYADSVKGRFTISRDNAKNTVYLQMNSLKPEDTAVYYCAARVFTLLGYSFEYWGQGTQVTVSS”, the “polyreactivity (PSR sort gate)” value is reported as “low polyreactivity”.

Consider “QVQLVESGGGLVQAGGSLRLSCAASGKTFDPNAMGWYIPAPGKEREFVAAIATIGSSTYYADSVKGRFTMSRDNAKNTVYLPMTCLKPEDSAVYYCAKGIYVVYGIDDYWGQGTQVTVSS”, for which the “polyreactivity (PSR sort gate)” value was “low polyreactivity”.

With “QVQLVESGGGLVQAGGSLRLSCAASGRIFNRNAMGWYRQAPGKERELVAAITRGGRTNYADSVKGRFTISRDNAQNTVYLQMNSLKPEDTAVYYCAAAYYGSHGRYDYWVQGTQVTVSS”, the “polyreactivity (PSR sort gate)” value is on record as “high polyreactivity”.

With “QVQLVESGGGLVQAGGSLRISCAASGRTFRVYSMGWYIQAPGKEWELVASISARSGSTYYADSVKGRFTISRDNAKNTVYLQLNSVKPEDTAVYYSAAARRGFKYDYWGQGTQVTVSS”, the “polyreactivity (PSR sort gate)” value is “high polyreactivity”.

As to “QVQLVESGGGLVQAGGSLRLSCAASGSIFRLNALGWYRQAPGKERELVAAITWSDSSTYYADSVKGRFTISRDNAKNTVYLQMNSLKQEDTAVYYCAADPQSYKYDYWGQGTQVTVSS”, the “polyreactivity (PSR sort gate)” value is “low polyreactivity”.

For “QVQLVESGGGLVQAGGSLRLSCAASGSILCLNAMGWYRQAPGKERELVADITRGGSTYYADSVKGRFTISRDNAKNTVYLQMNSLKPEDTAVYYCAADAYTGQIPYYYFEHYYWGQGTQVTVSS”, the “polyreactivity (PSR sort gate)” value was “high polyreactivity”.

Take “QVQLVESGGGLVQAGGSLRLSCAASGRTSRFDAMGWDIEAPGKERELVARITTRGGSTYYADSVKGRFTISRDNAKNTVYLQMNSLKPEDTAVYFCNAKVTRGDVGGRFEYWGQGTQVTVSS”: the “polyreactivity (PSR sort gate)” value is listed as “high polyreactivity”.

As for “QVQLVESGGGLVQAGGSLRLSCAASGITFYGYAMGWYRQAPGKERELVARISSGGTTKYADSVKGRFTISRDNAKNTVYLQMNSLKPEDTAVYYCAVGGSWWYYGFYYWGQATQVTVSS”, the “polyreactivity (PSR sort gate)” value is reported as “high polyreactivity”.

Turning to “QVQLVESGGGLVQAGGSLRLSCAASGSIFYHYVMGWYRQAPGKDRELVAGISWSGVSTYYADSVKGLFTISRDNAKNTVYLQMNSLKPEDTAVYYCAAVYRQSRLHTFGYWGQGTQVTVSS”, the “polyreactivity (PSR sort gate)” value was “high polyreactivity”.

As for “QVQLVESDGGLVQAGGSHPLSSAASGRIIYRYTMGWYRQAPGKERELVAAIRYRTSSTYYADSVKGRFTISRDNAKNTVYLQMNSLKPEDTAVYYCAAYDGLRPHRMDYWGQGTQVTVSS”, the “polyreactivity (PSR sort gate)” value is “low polyreactivity”.

With “QVQLVESGGGLVQAGGSLRLSCAASGRIFDQNAMGWYRQAPGKERELVAAITWSGGSTNYADSVKVRFTISRDNSKNTVYLLMNSLKTEDTAVYYCNKVSYGYSTYGYWGQGTQVTVSS”, the “polyreactivity (PSR sort gate)” value was “low polyreactivity”.

With “QVQLVESGGGLVQAGGSLRLSCAASGLIIAHYAMGWYRQAPVKERELVAAITSGSSTYYADSVKGRFTISRDNAKNNVYLQMNSLKPEDTAVYYCAAKETHSAYRSSGNYWGQGTQVTVSS”, the “polyreactivity (PSR sort gate)” value is given as “low polyreactivity”.

Regarding “QVQVVESGAGLVQAGGSLRISCAASGRNFVANAMGWYRQAPGKERELVAAISIIGAGTYYADSVKGRFTISRDNAKITVYLQMNSLKPEDTAVYYCATQYGWYIFGYWGQGSQVTVSS”, the “polyreactivity (PSR sort gate)” value is listed as “high polyreactivity”.

“QVQLVESRGGLVQAGGSLRLSCAASGSIFTSYAMGWYRQAPGKERELVAAINGSGGSTFYADSVKGRFTISRDNAKNTVYLQMNSLKPQDTAVYYCNTGGPRGTTYDYWGQGTQVTVSS”: the “polyreactivity (PSR sort gate)” value is “low polyreactivity”.

In the case of “QVQLVESGGGLVQAGCSLRLSCAASGRTFYHYGMGWYRQAPGKERELVAAINFSGGSTNYADSVKGRFTISRDNAKNTVYLQMNSLKTEDTAVYNCNKEGRPDRDYWGQGTQVTVSS”, the “polyreactivity (PSR sort gate)” value is given as “low polyreactivity”.

Turning to “HVQVVESGGGLVQEGGSLRLICAASGYLFAYYAMGWFRQAPGKERELVAPIRSGGSTNYADSVKGRFTISRDNAKNTVYLQMNSLKPEDTAVYYCAKGDRRWTLCRPDYDYWGQGTQVTVAS”, the “polyreactivity (PSR sort gate)” value was “low polyreactivity”.

For the sequence “QVQLVESGGGLVQAGGSLRLTCAASGSTFDLNAMGWYRQSPGKERELVARISSVGSTNYADSVKGRFTISRDNAKNSVYLQMNSLKPEDTAVYYCNAGFWDLYDYWGQGTQVTVSS”, the “polyreactivity (PSR sort gate)” value is on record as “low polyreactivity”.

Take “QVQLGDSGGGLVHAGGSLSLSCAASGSTFAYYSMGWYRQAPGKERELVAGFTWTGGSTYYADSVKGRFTISRDNAKNTVYFQKNSLKPEDTAVYFCAVTYPYGYEYDHWGQGSQVTVSS”: the “polyreactivity (PSR sort gate)” value is “low polyreactivity”.

As for “QVQLVESGGGLVQAGGSLRLSCAASGITFRTYAMGWYRQALGKERELVAVITWSGGRTYYADSVKGRFTISRDNANNTVYLQMHSLKPEDTAVYYCNALAYYIRYYYWGQGTQVTVSS”, the “polyreactivity (PSR sort gate)” value is listed as “high polyreactivity”.

Take “QVQLVESGGGLVQAGGSLRLSCAASGRTFVYKAMGWYRQSPGKERELVAALDGGGDRTYYADSVKGRFTISRDNAKNTVYLQMNSLKPEDTAVYYCARDPGDTYYYSYPEGDYWGEGTQVTVSS”: the “polyreactivity (PSR sort gate)” value is “low polyreactivity”.

Take “QVQLVESGGGLVQAGGSLRLSCAASGRTFWENAMGWYRQAPGKERELVAAISGDSGSTYYADSVKGRFTISRDNAKNTVYLQMNSLKPEDTAVYYCAADSDRDDSYPYYYWGQGTQVTVSS”: the “polyreactivity (PSR sort gate)” value was “low polyreactivity”.
